Experimental findings from patent US20040082762A1 (Janssen / Centocor, published 2004) are described below.

The assay has as its target T1, Aβ 1-42 peptide (human, UniProt P05067 672-713).
T1 construct: domain: Aβ 1-42; also called Aβ42
Nature of the assay: competitive ELISA on Aβ1-42; labelled antibody biotinylated murine 12B4.

T1 sequence (P05067 672-713 limits assumed): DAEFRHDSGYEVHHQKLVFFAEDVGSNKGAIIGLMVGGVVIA

B1: chimeric 12B4 (antibody, V domains shown)
VH: QVTLKESGPGILQPSQTLSLTCSFSGFSLSTNGMGVSWIRQPSGKGLEWLAHIYWDEDKRYNPSLKSRLTISKDTSNNQVFLKITNVDTADTATYYCARRRIIYDVEDYFDYWGQGTTLTVSS
VL: DVLMTQTPLSLPVSLGDQASISCRSSQNIVHSNGNTYLEWYLQKPGQSPKLLIYKVSNRFSGVPDRFSGSGSGTDFTLKISRVEAEDLGVYYCFQGSHVPLTFGAGTKLELK
notes: Murine 12B4 variable regions joined to human gamma 1 and C kappa constant regions (vectors pCMV-hγ1 and pCMV-hκ1), expressed in COS cells; also called chimeric 12B4 antibody
With B1, the binding result is reported as “binds”.

B2: murine 12B4 (antibody, V domains shown)
VH: B1 VH
VL: B1 VL
notes: Mouse monoclonal antibody of the IgG2a isotype; also called mAb 12B4; mouse 12B4
As to B2, the binding result is reported as “binds”.
